The source of these data is patent publication US20110118131A1 (published 2011).

The test concerns the target T1, IL-1beta (UniProt P01584 117-269).
T1 construct: also called IL-1β
Briefly: Biacore. A general note: In SPR one partner is held on a chip, and binding of the other changes the refractive index at the surface.

B1: XPA23 Fab, heavy chain N104R (Fab, V domains shown)
VH: EVQLLESGGGLVQPGGSLRLSCAASGFTFSKYFMFWVRQAPGKGLEWVSVISPSGGMTRYADSVKGRFTISRDNSKNTLYLQMNSLRAEDTAVYYCARVGYGGRSDYWGQGTLVTVSS
VL: DIQMTQSPSSVSASVGDRLTIICRASQDINRWLAWYQQTPGNAPKLLIHSATSLQSGVPSRFSGSGSGTDFTLTINSLQPEDFATYYCQQADSFPLTFGGGTKVEIK
As for B1, the binding result is “no binding”.

B2: XPA23 Fab, heavy chain R59N (Fab, V domains shown)
VH: EVQLLESGGGLVQPGGSLRLSCAASGFTFSKYFMFWVRQAPGKGLEWVSVISPSGGMTNYADSVKGRFTISRDNSKNTLYLQMNSLRAEDTAVYYCARVGYGGNSDYWGQGTLVTVSS
VL: DIQMTQSPSSVSASVGDRLTIICRASQDINRWLAWYQQTPGNAPKLLIHSATSLQSGVPSRFSGSGSGTDFTLTINSLQPEDFATYYCQQADSFPLTFGGGTKVEIK
Regarding B2, the “fold difference in affinity vs parental” value was 0.86 fold.

B3: XPA23 Fab, heavy chain P53F (Fab, V domains shown)
VH: EVQLLESGGGLVQPGGSLRLSCAASGFTFSKYFMFWVRQAPGKGLEWVSVISFSGGMTRYADSVKGRFTISRDNSKNTLYLQMNSLRAEDTAVYYCARVGYGGNSDYWGQGTLVTVSS
VL: DIQMTQSPSSVSASVGDRLTIICRASQDINRWLAWYQQTPGNAPKLLIHSATSLQSGVPSRFSGSGSGTDFTLTINSLQPEDFATYYCQQADSFPLTFGGGTKVEIK
Regarding B3, the “fold difference in affinity vs parental” value came to 0.05 fold.

B4: XPA23 Fab, heavy chain R59E (Fab, V domains shown)
VH: EVQLLESGGGLVQPGGSLRLSCAASGFTFSKYFMFWVRQAPGKGLEWVSVISPSGGMTEYADSVKGRFTISRDNSKNTLYLQMNSLRAEDTAVYYCARVGYGGNSDYWGQGTLVTVSS
VL: DIQMTQSPSSVSASVGDRLTIICRASQDINRWLAWYQQTPGNAPKLLIHSATSLQSGVPSRFSGSGSGTDFTLTINSLQPEDFATYYCQQADSFPLTFGGGTKVEIK
In the case of B4, the binding result is “no binding”.

B5: XPA23 Fab, heavy chain R59F (Fab, V domains shown)
VH: EVQLLESGGGLVQPGGSLRLSCAASGFTFSKYFMFWVRQAPGKGLEWVSVISPSGGMTFYADSVKGRFTISRDNSKNTLYLQMNSLRAEDTAVYYCARVGYGGNSDYWGQGTLVTVSS
VL: DIQMTQSPSSVSASVGDRLTIICRASQDINRWLAWYQQTPGNAPKLLIHSATSLQSGVPSRFSGSGSGTDFTLTINSLQPEDFATYYCQQADSFPLTFGGGTKVEIK
With B5, the “fold difference in affinity vs parental” value amounted to 0.92 fold.

B6: XPA23 Fab, heavy chain P53W (Fab, V domains shown)
VH: EVQLLESGGGLVQPGGSLRLSCAASGFTFSKYFMFWVRQAPGKGLEWVSVISWSGGMTRYADSVKGRFTISRDNSKNTLYLQMNSLRAEDTAVYYCARVGYGGNSDYWGQGTLVTVSS
VL: DIQMTQSPSSVSASVGDRLTIICRASQDINRWLAWYQQTPGNAPKLLIHSATSLQSGVPSRFSGSGSGTDFTLTINSLQPEDFATYYCQQADSFPLTFGGGTKVEIK
With B6, the “fold difference in affinity vs parental” value was found to be 0.05 fold.

B7: XPA23 Fab, heavy chain P53H (Fab, V domains shown)
VH: EVQLLESGGGLVQPGGSLRLSCAASGFTFSKYFMFWVRQAPGKGLEWVSVISHSGGMTRYADSVKGRFTISRDNSKNTLYLQMNSLRAEDTAVYYCARVGYGGNSDYWGQGTLVTVSS
VL: DIQMTQSPSSVSASVGDRLTIICRASQDINRWLAWYQQTPGNAPKLLIHSATSLQSGVPSRFSGSGSGTDFTLTINSLQPEDFATYYCQQADSFPLTFGGGTKVEIK
As to B7, the binding result is “no binding”.

B8: XPA23 Fab, heavy chain P53E (Fab, V domains shown)
VH: EVQLLESGGGLVQPGGSLRLSCAASGFTFSKYFMFWVRQAPGKGLEWVSVISESGGMTRYADSVKGRFTISRDNSKNTLYLQMNSLRAEDTAVYYCARVGYGGNSDYWGQGTLVTVSS
VL: DIQMTQSPSSVSASVGDRLTIICRASQDINRWLAWYQQTPGNAPKLLIHSATSLQSGVPSRFSGSGSGTDFTLTINSLQPEDFATYYCQQADSFPLTFGGGTKVEIK
On to B8, for which the “fold difference in affinity vs parental” value amounted to 0.03 fold.

B9: XPA23 Fab, heavy chain R59D (Fab, V domains shown)
VH: EVQLLESGGGLVQPGGSLRLSCAASGFTFSKYFMFWVRQAPGKGLEWVSVISPSGGMTDYADSVKGRFTISRDNSKNTLYLQMNSLRAEDTAVYYCARVGYGGNSDYWGQGTLVTVSS
VL: DIQMTQSPSSVSASVGDRLTIICRASQDINRWLAWYQQTPGNAPKLLIHSATSLQSGVPSRFSGSGSGTDFTLTINSLQPEDFATYYCQQADSFPLTFGGGTKVEIK
B9: the binding result was “no binding”.

B10: XPA23 Fab, heavy chain N104S (Fab, V domains shown)
VH: EVQLLESGGGLVQPGGSLRLSCAASGFTFSKYFMFWVRQAPGKGLEWVSVISPSGGMTRYADSVKGRFTISRDNSKNTLYLQMNSLRAEDTAVYYCARVGYGGSSDYWGQGTLVTVSS
VL: DIQMTQSPSSVSASVGDRLTIICRASQDINRWLAWYQQTPGNAPKLLIHSATSLQSGVPSRFSGSGSGTDFTLTINSLQPEDFATYYCQQADSFPLTFGGGTKVEIK
Take B10: the “fold difference in affinity vs parental” value stood at 1.02 fold.

B11: XPA23 Fab, heavy chain R59K (Fab, V domains shown)
VH: EVQLLESGGGLVQPGGSLRLSCAASGFTFSKYFMFWVRQAPGKGLEWVSVISPSGGMTKYADSVKGRFTISRDNSKNTLYLQMNSLRAEDTAVYYCARVGYGGNSDYWGQGTLVTVSS
VL: DIQMTQSPSSVSASVGDRLTIICRASQDINRWLAWYQQTPGNAPKLLIHSATSLQSGVPSRFSGSGSGTDFTLTINSLQPEDFATYYCQQADSFPLTFGGGTKVEIK
B11: the “fold difference in affinity vs parental” value was 0.94 fold.

B12: XPA23 Fab, heavy chain P53N (Fab, V domains shown)
VH: EVQLLESGGGLVQPGGSLRLSCAASGFTFSKYFMFWVRQAPGKGLEWVSVISNSGGMTRYADSVKGRFTISRDNSKNTLYLQMNSLRAEDTAVYYCARVGYGGNSDYWGQGTLVTVSS
VL: DIQMTQSPSSVSASVGDRLTIICRASQDINRWLAWYQQTPGNAPKLLIHSATSLQSGVPSRFSGSGSGTDFTLTINSLQPEDFATYYCQQADSFPLTFGGGTKVEIK
Take B12: the “fold difference in affinity vs parental” value was 0.06 fold.

B13: XPA23 Fab, heavy chain N104W (Fab, V domains shown)
VH: EVQLLESGGGLVQPGGSLRLSCAASGFTFSKYFMFWVRQAPGKGLEWVSVISPSGGMTRYADSVKGRFTISRDNSKNTLYLQMNSLRAEDTAVYYCARVGYGGWSDYWGQGTLVTVSS
VL: DIQMTQSPSSVSASVGDRLTIICRASQDINRWLAWYQQTPGNAPKLLIHSATSLQSGVPSRFSGSGSGTDFTLTINSLQPEDFATYYCQQADSFPLTFGGGTKVEIK
On to B13, for which the binding result is recorded as “no binding”.

B14: XPA23 Fab, heavy chain P53Y (Fab, V domains shown)
VH: EVQLLESGGGLVQPGGSLRLSCAASGFTFSKYFMFWVRQAPGKGLEWVSVISYSGGMTRYADSVKGRFTISRDNSKNTLYLQMNSLRAEDTAVYYCARVGYGGNSDYWGQGTLVTVSS
VL: DIQMTQSPSSVSASVGDRLTIICRASQDINRWLAWYQQTPGNAPKLLIHSATSLQSGVPSRFSGSGSGTDFTLTINSLQPEDFATYYCQQADSFPLTFGGGTKVEIK
Take B14: the “fold difference in affinity vs parental” value was 0.03 fold.

B15: XPA23 Fab, heavy chain P53D (Fab, V domains shown)
VH: EVQLLESGGGLVQPGGSLRLSCAASGFTFSKYFMFWVRQAPGKGLEWVSVISDSGGMTRYADSVKGRFTISRDNSKNTLYLQMNSLRAEDTAVYYCARVGYGGNSDYWGQGTLVTVSS
VL: DIQMTQSPSSVSASVGDRLTIICRASQDINRWLAWYQQTPGNAPKLLIHSATSLQSGVPSRFSGSGSGTDFTLTINSLQPEDFATYYCQQADSFPLTFGGGTKVEIK
Regarding B15, the binding result was “no binding”.

B16: XPA23 Fab, heavy chain N104Y (Fab, V domains shown)
VH: EVQLLESGGGLVQPGGSLRLSCAASGFTFSKYFMFWVRQAPGKGLEWVSVISPSGGMTRYADSVKGRFTISRDNSKNTLYLQMNSLRAEDTAVYYCARVGYGGYSDYWGQGTLVTVSS
VL: DIQMTQSPSSVSASVGDRLTIICRASQDINRWLAWYQQTPGNAPKLLIHSATSLQSGVPSRFSGSGSGTDFTLTINSLQPEDFATYYCQQADSFPLTFGGGTKVEIK
In the case of B16, the binding result is “no binding”.

B17: XPA23 Fab, heavy chain R59Q (Fab, V domains shown)
VH: EVQLLESGGGLVQPGGSLRLSCAASGFTFSKYFMFWVRQAPGKGLEWVSVISPSGGMTQYADSVKGRFTISRDNSKNTLYLQMNSLRAEDTAVYYCARVGYGGNSDYWGQGTLVTVSS
VL: DIQMTQSPSSVSASVGDRLTIICRASQDINRWLAWYQQTPGNAPKLLIHSATSLQSGVPSRFSGSGSGTDFTLTINSLQPEDFATYYCQQADSFPLTFGGGTKVEIK
With B17, the “fold difference in affinity vs parental” value came out at 0.86 fold.

B18: XPA23 Fab, heavy chain P53Q (Fab, V domains shown)
VH: EVQLLESGGGLVQPGGSLRLSCAASGFTFSKYFMFWVRQAPGKGLEWVSVISQSGGMTRYADSVKGRFTISRDNSKNTLYLQMNSLRAEDTAVYYCARVGYGGNSDYWGQGTLVTVSS
VL: DIQMTQSPSSVSASVGDRLTIICRASQDINRWLAWYQQTPGNAPKLLIHSATSLQSGVPSRFSGSGSGTDFTLTINSLQPEDFATYYCQQADSFPLTFGGGTKVEIK
Regarding B18, the “fold difference in affinity vs parental” value worked out at 0.03 fold.

B19: XPA23 Fab, heavy chain P53S (Fab, V domains shown)
VH: EVQLLESGGGLVQPGGSLRLSCAASGFTFSKYFMFWVRQAPGKGLEWVSVISSSGGMTRYADSVKGRFTISRDNSKNTLYLQMNSLRAEDTAVYYCARVGYGGNSDYWGQGTLVTVSS
VL: DIQMTQSPSSVSASVGDRLTIICRASQDINRWLAWYQQTPGNAPKLLIHSATSLQSGVPSRFSGSGSGTDFTLTINSLQPEDFATYYCQQADSFPLTFGGGTKVEIK
As for B19, the “fold difference in affinity vs parental” value is 0.03 fold.

B20: XPA23 Fab, heavy chain R59H (Fab, V domains shown)
VH: EVQLLESGGGLVQPGGSLRLSCAASGFTFSKYFMFWVRQAPGKGLEWVSVISPSGGMTHYADSVKGRFTISRDNSKNTLYLQMNSLRAEDTAVYYCARVGYGGNSDYWGQGTLVTVSS
VL: DIQMTQSPSSVSASVGDRLTIICRASQDINRWLAWYQQTPGNAPKLLIHSATSLQSGVPSRFSGSGSGTDFTLTINSLQPEDFATYYCQQADSFPLTFGGGTKVEIK
With B20, the binding result is reported as “no binding”.

B21: XPA23 Fab, heavy chain P53K (Fab, V domains shown)
VH: EVQLLESGGGLVQPGGSLRLSCAASGFTFSKYFMFWVRQAPGKGLEWVSVISKSGGMTRYADSVKGRFTISRDNSKNTLYLQMNSLRAEDTAVYYCARVGYGGNSDYWGQGTLVTVSS
VL: DIQMTQSPSSVSASVGDRLTIICRASQDINRWLAWYQQTPGNAPKLLIHSATSLQSGVPSRFSGSGSGTDFTLTINSLQPEDFATYYCQQADSFPLTFGGGTKVEIK
Regarding B21, the “fold difference in affinity vs parental” value amounted to 0.04 fold.
